Measurements from patent publication US20230051266A1 (ABL BIO, published 2023).
Positions count from the first letter of the chain named. In names and notes the source's numbering stands.

B1: 41B01 (anti-4-1BB monoclonal antibody) (antibody, V domains shown)
VH: EVQLLESGGGLVQPGGSLRLSCAASGFTFSSYDMSWVRQAPGKGLEWVSWISYSGGSIYYADSVKGRFTISRDNSKNTLYLQMNSLRAEDTAVYYCARDGQRNSMREFDYWGQGTLVTVSS
VL: QSVLTQPPSASGTPGRRVTISCSGSSSNIGNNYVTWYQQLPGTAPKLLIYADSHRPSGVPDRFSGSKSGTSASLAISGLRSEDEADYYCATWDYSLSGYVFGGGTKLTVL
notes: Tested as a human IgG type antibody (detected with anti-human IgG); also called 1A10
B2: 41B02 (anti-4-1BB monoclonal antibody) (antibody, V domains shown)
VH: EVQLLESGGGLVQPGGSLRLSCAASGFTFSGYDMSWVRQAPGKGLEWVSVIYPDDGNTYYADSVKGRFTISRDNSKNTLYLQMNSLRAEDAAVYYCAKHGGQKPTTKSSSAYGMDGWGQGTLVTVSS
VL: B1 VL
notes: Tested as a human IgG type antibody; also called 1A12
B3: 5B5(NA)x41B02 (bispecific antibody, human IgG1, kappa, N297A)
heavy: not shown
light: EIVLTQSPGTLSLSPGERATLSCRASQGIDSYVAWYQQKPGQAPRLLIYDASLRATGIPDRFSGSGSGTDFTLTISRLEPEDFAVYYCQQYNSWPITFGQGTKLEIKRTVAAPSVFIFPPSDEQLKSGTASVVCLLNNFYPREAKVQWKVDNALQSGNSQESVTEQDSKDSTYSLSSTLTLSKADYEKHKVYACEVTHQGLSSPVTKSFNRGEC
notes: IgG1 N297A-scFv (VL-(G4S)4-VH); also called 5B5(NA) x41B02 (1A12)
B4: 5B5(NA)x41B01 (bispecific antibody, human IgG1, kappa, N297A)
heavy: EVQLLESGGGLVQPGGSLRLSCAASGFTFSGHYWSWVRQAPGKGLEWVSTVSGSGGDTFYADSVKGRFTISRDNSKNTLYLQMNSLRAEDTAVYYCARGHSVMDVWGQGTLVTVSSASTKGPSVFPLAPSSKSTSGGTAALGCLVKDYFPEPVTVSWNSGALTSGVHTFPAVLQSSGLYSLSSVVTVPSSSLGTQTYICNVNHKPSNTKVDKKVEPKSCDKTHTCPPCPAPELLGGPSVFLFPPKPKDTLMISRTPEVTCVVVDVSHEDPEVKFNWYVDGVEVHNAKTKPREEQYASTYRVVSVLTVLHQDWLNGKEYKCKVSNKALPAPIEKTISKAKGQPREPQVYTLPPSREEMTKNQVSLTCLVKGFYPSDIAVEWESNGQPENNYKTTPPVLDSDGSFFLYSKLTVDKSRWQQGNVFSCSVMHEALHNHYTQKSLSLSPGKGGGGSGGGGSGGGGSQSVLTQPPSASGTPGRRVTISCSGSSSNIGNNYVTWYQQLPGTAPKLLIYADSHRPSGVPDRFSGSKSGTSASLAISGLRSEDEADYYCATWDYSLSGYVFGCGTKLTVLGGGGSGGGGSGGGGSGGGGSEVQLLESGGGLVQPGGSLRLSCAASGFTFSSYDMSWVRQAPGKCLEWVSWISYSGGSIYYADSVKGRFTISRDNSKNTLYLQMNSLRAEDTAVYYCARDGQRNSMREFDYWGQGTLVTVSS
light: B3 light
notes: IgG1 N297A-scFv; also called 5B5(NA) x41B01 (1A10)
B5: 5B5(NA)xAB41 (bispecific antibody, human IgG1, kappa, N297A)
heavy: not shown
light: B3 light
notes: IgG1 N297A-scFv (VL-(G4S)4-VH)
B6: 5D5(NA)x41B01 (bispecific antibody, human IgG1, kappa, N297A)
heavy: not shown
light: B3 light with R24K, G28D, S31D, Y32D, V33I, A34N, Y91S, N92L, S93R, W94T
notes: IgG1 N297A-scFv; also called 5D5(NA) x41B01 (1A10)
B7: 5D5(NA)xAB41 (bispecific antibody, human IgG1, kappa, N297A)
heavy: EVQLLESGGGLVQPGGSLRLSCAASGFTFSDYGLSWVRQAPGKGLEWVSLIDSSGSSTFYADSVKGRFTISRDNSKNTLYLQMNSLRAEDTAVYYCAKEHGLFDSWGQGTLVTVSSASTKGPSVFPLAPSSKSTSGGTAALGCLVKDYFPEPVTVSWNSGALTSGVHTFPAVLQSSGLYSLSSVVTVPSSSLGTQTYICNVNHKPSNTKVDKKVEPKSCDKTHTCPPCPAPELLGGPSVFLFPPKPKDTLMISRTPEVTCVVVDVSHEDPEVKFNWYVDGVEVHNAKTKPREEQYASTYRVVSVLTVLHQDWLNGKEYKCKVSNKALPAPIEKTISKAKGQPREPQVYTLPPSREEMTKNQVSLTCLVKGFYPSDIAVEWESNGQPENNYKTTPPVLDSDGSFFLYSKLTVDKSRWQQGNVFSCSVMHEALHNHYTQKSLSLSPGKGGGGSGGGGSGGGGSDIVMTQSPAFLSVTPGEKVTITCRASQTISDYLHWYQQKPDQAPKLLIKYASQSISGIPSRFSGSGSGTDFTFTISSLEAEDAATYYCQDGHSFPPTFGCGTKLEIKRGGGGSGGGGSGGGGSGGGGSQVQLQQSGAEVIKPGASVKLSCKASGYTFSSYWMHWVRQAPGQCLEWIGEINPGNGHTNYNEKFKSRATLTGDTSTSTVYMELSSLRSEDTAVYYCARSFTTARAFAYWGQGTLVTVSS
light: B3 light with R24K, G28D, S31D, Y32D, V33I, A34N, Y91S, N92L, S93R, W94T
notes: as for B5
B8: 5D5(NA)x41B02 (bispecific antibody, human IgG1, kappa, N297A)
heavy: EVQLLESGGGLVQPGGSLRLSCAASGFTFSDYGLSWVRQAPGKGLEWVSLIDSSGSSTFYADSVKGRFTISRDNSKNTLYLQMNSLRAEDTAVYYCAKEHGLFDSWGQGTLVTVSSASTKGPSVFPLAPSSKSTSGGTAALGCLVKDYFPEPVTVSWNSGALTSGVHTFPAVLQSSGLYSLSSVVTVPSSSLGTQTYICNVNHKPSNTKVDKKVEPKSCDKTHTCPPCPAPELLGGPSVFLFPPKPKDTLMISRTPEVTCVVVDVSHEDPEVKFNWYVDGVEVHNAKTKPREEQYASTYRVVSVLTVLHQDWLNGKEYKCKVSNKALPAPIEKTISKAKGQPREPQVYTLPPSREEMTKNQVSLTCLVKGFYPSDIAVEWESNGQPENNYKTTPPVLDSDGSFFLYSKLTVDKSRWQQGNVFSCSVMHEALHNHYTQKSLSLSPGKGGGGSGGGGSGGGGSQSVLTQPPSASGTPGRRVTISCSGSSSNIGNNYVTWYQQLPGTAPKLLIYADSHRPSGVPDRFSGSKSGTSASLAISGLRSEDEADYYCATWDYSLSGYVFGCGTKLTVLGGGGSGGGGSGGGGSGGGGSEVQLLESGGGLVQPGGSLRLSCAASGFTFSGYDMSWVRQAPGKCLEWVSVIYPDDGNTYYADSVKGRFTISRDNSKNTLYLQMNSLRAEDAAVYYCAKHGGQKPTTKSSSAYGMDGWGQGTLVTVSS
light: B3 light with R24K, G28D, S31D, Y32D, V33I, A34N, Y91S, N92L, S93R, W94T
notes: IgG1 N297A-scFv (VL-(G4S)4-VH); also called 5D5(NA) x41B02 (1A12)
B9: 5A6(NA)xAB41 (bispecific antibody, human IgG1, lambda, N297A)
heavy: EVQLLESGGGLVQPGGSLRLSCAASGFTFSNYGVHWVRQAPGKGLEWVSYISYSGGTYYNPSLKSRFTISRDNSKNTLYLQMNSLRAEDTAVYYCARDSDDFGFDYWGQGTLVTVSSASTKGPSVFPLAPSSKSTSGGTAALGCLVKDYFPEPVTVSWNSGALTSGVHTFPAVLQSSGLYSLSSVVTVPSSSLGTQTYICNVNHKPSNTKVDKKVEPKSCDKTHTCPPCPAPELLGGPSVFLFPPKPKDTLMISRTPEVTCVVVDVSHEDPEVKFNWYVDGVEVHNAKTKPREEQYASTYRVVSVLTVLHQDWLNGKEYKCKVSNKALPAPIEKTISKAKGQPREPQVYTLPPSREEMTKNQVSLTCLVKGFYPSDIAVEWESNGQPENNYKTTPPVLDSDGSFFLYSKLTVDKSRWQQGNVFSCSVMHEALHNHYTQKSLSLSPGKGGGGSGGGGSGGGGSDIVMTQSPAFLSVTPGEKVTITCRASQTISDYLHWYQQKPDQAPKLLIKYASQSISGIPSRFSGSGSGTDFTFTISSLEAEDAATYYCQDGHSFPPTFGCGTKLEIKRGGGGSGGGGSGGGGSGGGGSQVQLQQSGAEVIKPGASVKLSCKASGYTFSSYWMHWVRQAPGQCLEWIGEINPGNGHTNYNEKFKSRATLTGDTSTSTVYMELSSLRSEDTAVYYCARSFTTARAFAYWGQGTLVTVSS
light: QSVLTQPPSASGTPGQRVTISCQGDSLRSYYVNWYQQLPGTAPKLLIYDHSKRPTGVPDRFSGSKSGTSASLAISGLRSEDEADYYCQSYDSSTVVFGGGTKLTVLGQPKAAPSVTLFPPSSEELQANKATLVCLISDFYPGAVTVAWKADSSPVKAGVETTTPSKQSNNKYAASSYLSLTPEQWKSHRSYSCQVTHEGSTVEKTVAPAECS
notes: as for B5
B10: 5A6(NA)x41B01 (bispecific antibody, human IgG1, lambda, N297A)
heavy: not shown
light: B9 light
notes: IgG1 N297A-scFv; also called 5A6(NA) x41B01 (1A10)
B11: 5A6(NA)x41B02 (bispecific antibody, human IgG1, lambda, N297A)
heavy: not shown
light: B9 light
notes: IgG1 N297A-scFv (VL-(G4S)4-VH); also called 5A6(NA) x41B02 (1A12)
B12: 5D5(NA)x41B01 M12 (bispecific antibody, human IgG1, kappa, N297A)
heavy: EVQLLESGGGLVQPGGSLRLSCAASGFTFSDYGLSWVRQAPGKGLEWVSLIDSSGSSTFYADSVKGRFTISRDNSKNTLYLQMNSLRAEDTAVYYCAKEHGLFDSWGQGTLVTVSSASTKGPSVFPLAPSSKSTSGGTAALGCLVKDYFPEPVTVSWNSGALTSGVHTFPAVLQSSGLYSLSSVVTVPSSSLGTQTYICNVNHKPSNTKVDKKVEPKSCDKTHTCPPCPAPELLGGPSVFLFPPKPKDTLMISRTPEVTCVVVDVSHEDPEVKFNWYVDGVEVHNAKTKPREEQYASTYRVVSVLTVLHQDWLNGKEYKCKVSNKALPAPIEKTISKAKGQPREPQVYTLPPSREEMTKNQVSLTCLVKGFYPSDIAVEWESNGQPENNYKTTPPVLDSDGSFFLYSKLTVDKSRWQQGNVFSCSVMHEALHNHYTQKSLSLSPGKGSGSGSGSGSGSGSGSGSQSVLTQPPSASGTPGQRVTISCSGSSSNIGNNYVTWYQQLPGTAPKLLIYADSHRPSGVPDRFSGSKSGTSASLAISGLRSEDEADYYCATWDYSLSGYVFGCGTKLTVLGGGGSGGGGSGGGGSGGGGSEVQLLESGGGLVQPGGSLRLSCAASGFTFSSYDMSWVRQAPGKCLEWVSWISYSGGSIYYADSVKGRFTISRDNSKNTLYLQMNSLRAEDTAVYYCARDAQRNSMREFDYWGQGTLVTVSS
light: B3 light with R24K, G28D, S31D, Y32D, V33I, A34N, Y91S, N92L, S93R, W94T
notes: also called 5D5(NA)x41B01 M12:WT; 5D5WT(NA)x41B01 M12
B13: 5D5M4(NA)x41B01 M12 (bispecific antibody, human IgG1, kappa, N297A)
heavy: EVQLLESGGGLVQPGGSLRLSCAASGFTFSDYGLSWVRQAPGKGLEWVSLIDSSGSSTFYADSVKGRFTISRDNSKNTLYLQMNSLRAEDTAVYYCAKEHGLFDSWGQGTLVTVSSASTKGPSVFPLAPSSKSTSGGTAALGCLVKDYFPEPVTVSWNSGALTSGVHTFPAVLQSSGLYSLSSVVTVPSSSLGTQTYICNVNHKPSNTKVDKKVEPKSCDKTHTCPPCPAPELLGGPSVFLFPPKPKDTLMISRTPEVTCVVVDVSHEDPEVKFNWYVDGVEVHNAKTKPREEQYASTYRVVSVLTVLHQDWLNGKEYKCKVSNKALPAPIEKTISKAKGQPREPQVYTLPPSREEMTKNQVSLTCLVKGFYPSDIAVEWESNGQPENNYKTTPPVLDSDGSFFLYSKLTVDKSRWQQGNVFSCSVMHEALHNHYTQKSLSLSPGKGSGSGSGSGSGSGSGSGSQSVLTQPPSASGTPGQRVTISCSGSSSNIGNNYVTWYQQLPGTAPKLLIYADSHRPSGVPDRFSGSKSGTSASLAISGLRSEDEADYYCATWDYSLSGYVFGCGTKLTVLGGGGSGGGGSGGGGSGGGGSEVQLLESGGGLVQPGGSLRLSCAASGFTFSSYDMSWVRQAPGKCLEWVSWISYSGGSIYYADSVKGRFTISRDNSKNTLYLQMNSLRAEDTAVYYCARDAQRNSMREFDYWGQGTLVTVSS
light: B3 light with R24K, G28D, S31D, Y32A, V33I, A34N, Y91S, N92L, S93R, W94T
notes: IgG1 N297A-(GS)9-scFv
B14: 5A6(NA)x41B01 M12 (bispecific antibody, human IgG1, lambda, N297A)
heavy: not shown
light: B9 light
notes: also called 5A6(NA)x41B01 M12:WT; 5A6WT(NA)x41B01 M12
B15: 5A6M6(NA)x41B01 M12 (bispecific antibody, human IgG1, lambda, N297A)
heavy: not shown
light: B9 light with D25E, S92A
notes: IgG1 N297A-(GS)9-scFv

Molecular target: T1, Recombinant Human 4-1BB protein (human, UniProt Q07011 24-186)
T1 construct: also called h4-1BB; 4-1BB antigen
Experiment: BLI, Octet Red 96
Excerpt: To explore the binding kinetics of the humanized antibody, this example performed the affinity ranking by using Octet Red 96.

Going from B1 to B2, the Kd rises from 0.18 nM to 1.01 nM (5.6-fold). The first binds more tightly here.

Going from B1 to B2, the koff rises from 0.000119 s⁻¹ to 0.000603 s⁻¹ (5.1-fold).

B1 and B2 are within 1.5-fold of each other in kon: 658000 M⁻¹ s⁻¹ for the first, 595000 M⁻¹ s⁻¹ for the second.

Molecular target: T2, human 4-1BB on GloResponse NFkB-luc2/4-1BB Jurkat cells (human, UniProt Q07011 24-255)
Experiment: cell-based or functional assay

T2 sequence (Q07011 24-255): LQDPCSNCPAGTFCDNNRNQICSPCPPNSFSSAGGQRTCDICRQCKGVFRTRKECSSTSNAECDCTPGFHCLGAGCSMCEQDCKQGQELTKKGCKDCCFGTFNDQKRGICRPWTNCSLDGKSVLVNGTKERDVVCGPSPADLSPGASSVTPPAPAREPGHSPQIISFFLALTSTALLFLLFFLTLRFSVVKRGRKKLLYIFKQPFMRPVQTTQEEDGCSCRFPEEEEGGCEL

Compared with B3, B4 is 11-fold higher in “4-1BB reporter bioassay (NFkB-luc2/4-1BB Jurkat) with CHOK1-hBCMA cells, EC50” value: 0.003 nM for the first, 0.0316 nM for the second.

B5 and B6 are within 1.5-fold of each other in “4-1BB reporter bioassay (NFkB-luc2/4-1BB Jurkat) with CHOK1-hBCMA cells, EC50” value: 0.0741 nM for the first, 0.0691 nM for the second.

B7 and B8 are within 1.5-fold of each other in “4-1BB reporter bioassay (NFkB-luc2/4-1BB Jurkat) with CHOK1-hBCMA cells, EC50” value: 0.0426 nM for the first, 0.0314 nM for the second.

Going from B9 to B10, the “4-1BB reporter bioassay (NFkB-luc2/4-1BB Jurkat) with CHOK1-hBCMA cells, EC50” value rises from 0.0397 nM to 0.0616 nM (1.6-fold).

For B11, the “4-1BB reporter bioassay (NFkB-luc2/4-1BB Jurkat) with CHOK1-hBCMA cells, EC50” value was 0.0413 nM.

Molecular target: T2, human 4-1BB on GloResponse …
Experiment: cell-based or functional assay
Remark: another data set of the same source

First: B3
Second: B4
The “4-1BB reporter bioassay (NFkB-luc2/4-1BB Jurkat) with H929 cells, EC50” value (shortened to “4-1BB reporter bioassay … with H929 cells, EC50”) of the first is 2.1-fold higher: 12.1 nM for the first, 5.76 nM for the second.

First: B6
Second: B8
The “4-1BB reporter bioassay … with H929 cells, EC50” value of the first is 2-fold lower: 5.35 nM for the first, 10.9 nM for the second.

First: B10
Second: B11
The “4-1BB reporter bioassay … with H929 cells, EC50” value of the first is 4.5-fold lower: 3.16 nM for the first, 14.3 nM for the second.

Molecular target: T2, human 4-1BB on GloResponse …
Experiment: cell-based or functional assay
Remark: another data set of the same source

Going from B12 to B13, the “In vitro 4-1BB activation (reporter bioassay) with H929 cells, EC50” value falls from 0.629 nM to 0.377 nM (1.7-fold).

Compared with B14, B15 is 2.8-fold lower in “In vitro 4-1BB activation (reporter bioassay) with H929 cells, EC50” value: 0.459 nM for the first, 0.165 nM for the second.

B12 and B13 are within 1.5-fold of each other in “In vitro 4-1BB activation (reporter bioassay) with MM1S cells, EC50” value: 2.66 nM for the first, 2.41 nM for the second.

B14 and B15 are within 1.5-fold of each other in “In vitro 4-1BB activation (reporter bioassay) with MM1S cells, EC50” value: 2.26 nM for the first, 1.98 nM for the second.

Molecular target: T3, human BCMA on cells (CHOK1-hBCMA; H929 endogenous BCMA) (human, UniProt Q02223 1-184)
T3 construct: Cell-surface BCMA in FACS; also called mammalian expressed BCMA; native antigen
T3 sequence: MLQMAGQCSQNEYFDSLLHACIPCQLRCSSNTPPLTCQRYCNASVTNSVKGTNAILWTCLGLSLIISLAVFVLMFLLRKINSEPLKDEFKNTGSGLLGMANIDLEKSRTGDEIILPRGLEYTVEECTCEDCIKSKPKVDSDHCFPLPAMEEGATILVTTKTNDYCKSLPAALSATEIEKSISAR
Experiment: FACS, 100 nM antibody, H929 cells
Procedure: (§1) To evaluate the antigen binding property, the antibody candidates were analyzed for their bindings to BCMA expressed cells by FACS. Briefly, CHOK1 expressing human BCMA (CHOK1-hBCMA) or H929 expressing endogenous BCMA cells were treated with the 100 nM of indicated antibodies at 4° C. for 1 hr. CHOK1 cells were used for BCMA-negative control. After washing by FACS buffer (1% (w/v) BSA in PBS), cells were incubated with the FTTC-anti-human IgG antibody at 4° C. for 1 hr and then subjected to FACS analysis. As shown in FIGS. 2d-2f, the anti-BCMAx4-1BB antibodies bind to BCMA expressed CHOK1-hBCMA and H929 cell lines but not BCMA negative CHOK1.

Going from B3 to B4, the “quantified FACS signal (name not given)” value rises from 14.9 to 17.6.

First: B5
Second: B6
The “quantified FACS signal (name not given)” value of the first is lower: 14.1 for the first, 17.9 for the second.

First: B7
Second: B8
The “quantified FACS signal (name not given)” value of the first is lower: 19.7 for the first, 20.2 for the second.

Going from B9 to B10, the “quantified FACS signal (name not given)” value rises from 39.9 to 43.8.

B11 was tested, and the “quantified FACS signal (name not given)” value was 40.3.

Molecular target: T3, human BCMA on cells (CHOK1-hBCMA; H929 …)
Experiment: FACS, 100 nM antibody, CHOK1-hBCMA cells
Procedure: as §1

Compared with B3, B4 is higher in “quantified FACS signal (name not given)” value: 484 for the first, 493 for the second.

Compared with B5, B6 is higher in “quantified FACS signal (name not given)” value: 477 for the first, 579 for the second.

Going from B7 to B8, the “quantified FACS signal (name not given)” value rises from 585 to 602.

First: B9
Second: B10
The “quantified FACS signal (name not given)” value of the first is lower: 636 for the first, 652 for the second.

In the case of B11, the “quantified FACS signal (name not given)” value is reported as 646.

Molecular target: T4, Recombinant Human BCMA (human, UniProt Q02223 1-54)
T4 construct: also called hBCMA; recombinant BCMA
T4 sequence: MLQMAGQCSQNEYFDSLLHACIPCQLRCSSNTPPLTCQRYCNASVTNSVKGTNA
Experiment: SPR, bispecific antibody on Protein A chip, antigen flowed
Procedure: In the SPR experiment, the anti-BCMA/anti-4-1BB bispecific antibodies obtained in Example 3-5 were individually captured on flow-cells 2, 3 and 4, keeping the flow-cell 1 as reference, on a Protein A Chip on which an anti-BCMA/anti-4-1BB Bispecific antibody (5D5M4(NA)×41B01 M12 or 5A6M6(NA)×41B01 M12) had been immobilized by amine coupling. Recombinant Human BCMA or Human 4-1BB protein was flowed across the chip at concentration range from 100 nM to 6.25 nM for human BCMA or 250 nM to 15.625 nM for human 4-1BB and 0.78 nM at […] for 300 seconds, followed by a dissociation phase of 400 seconds. Regeneration was performed with 10 mM Glycine-HCl (pH 2.0).

B13 and B15 are within 1.5-fold of each other in Kd: 16 nM for the first, 22.6 nM for the second.

Going from B13 to B15, the koff falls from 0.065 s⁻¹ to 0.0119 s⁻¹ (5.5-fold).

Compared with B13, B15 is 7.7-fold lower in kon: 4.07e+06 M⁻¹ s⁻¹ for the first, 527000 M⁻¹ s⁻¹ for the second.

Molecular target: T5, human BCMA-Fc protein (human, UniProt Q02223 1-54)
T5 construct: Coated antigen of the DACE
T5 sequence: T4 sequence
Experiment: DACE (dual antigen captured ELISA): plate coated with human BCMA-Fc, bispecific antibody titrated, then human 4-1BB-His; Abs at 450 nm

B12 and B13 are within 1.5-fold of each other in “EC50 (read off the curve)” value: roughly 0.5 nM for the first, roughly 0.4 nM for the second.

First: B14
Second: B15
The “EC50 (read off the curve)” value of the first is 1.7-fold higher: roughly 0.5 nM for the first, roughly 0.3 nM for the second.
